The source of these data is the supplement of paper PMC10567573.

B1: FEM1A (parent)
chain: PCCSSSPEEPLNGESYESCCPTSR
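Note: lentivirally expressed fusions sorted by FACS into six bins by GFP to DsRed ratio, PSI derived from sequencing read proportions per bin multiplied by bin number.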

Variants of B1 are the subject of this data set. Description: protein stability index of a GFP-peptide fusion (GPS, HEK-293T) (PSI 1-6); higher = more stable. The conditions noted are these: c terminus: a fixed tail appended.
With PCCSSSPEEPLNGEAYESCCPTSR [S15A], the protein stability index amounted to 3.98. The same measure for PCCSSSPEEPLNGEIYESCCPTSR [S15I]: 3.66; for PCCSSSPEEPLNGEQYESCCPTSR [S15Q]: 3.52. The same measure for PQCSSSPEEPLNGESYESCCPTSR [C2Q]: 4.89.

Regarding PWCSSSPEEPLNGESYESCCPTSR [C2W], the protein stability index was found to be 4.37. In the case of PHCSSSPEEPLNGESYESCCPTSR [C2H] it was 4.79; in that of PCCSSSPEEPYNGESYESCCPTSR [L11Y], 3.55; in that of PCCSSSPEEPSNGESYESCCPTSR [L11S], 3.84.

Turning to PCCSSSPEEPFNGESYESCCPTSR [L11F], the protein stability index was 3.75.

Regarding PCCSFSPEEPLNGESYESCCPTSR [S5F], the protein stability index worked out at 2.48. In the case of PCCSKSPEEPLNGESYESCCPTSR [S5K] it was 2.85. PCCSGSPEEPLNGESYESCCPTSR [S5G]: the protein stability index amounted to 3.66. The same measure for PCCSASPEEPLNGESYESCCPTSR [S5A]: 3.49; for PCCSCSPEEPLNGESYESCCPTSR [S5C]: 3.38; for PCCSRSPEEPLNGESYESCCPTSR [S5R]: 3.28. The same measure for PCCRSSPEEPLNGESYESCCPTSR [S4R]: 3.14. Take PCCNSSPEEPLNGESYESCCPTSR [S4N]: the protein stability index was 3.95. In the case of PCCCSSPEEPLNGESYESCCPTSR [S4C] it was 1.94; in that of PCCVSSPEEPLNGESYESCCPTSR [S4V], 4.1. The same measure for PCCLSSPEEPLNGESYESCCPTSR [S4L]: 2.98; for PCCPSSPEEPLNGESYESCCPTSR [S4P]: 4.58. In the case of PCCKSSPEEPLNGESYESCCPTSR [S4K] it was 3.65; in that of PCCDSSPEEPLNGESYESCCPTSR [S4D], 4.42. In the case of PCCTSSPEEPLNGESYESCCPTSR [S4T], the protein stability index came to 4.13. In the case of PCCESSPEEPLNGESYESCCPTSR [S4E] it was 3.87. In the case of PCCSSSPVEPLNGESYESCCPTSR [E8V] it was 2.38; in that of PCCSSSPHEPLNGESYESCCPTSR [E8H], 3.33; in that of PCCSSSPQEPLNGESYESCCPTSR [E8Q], 3.4.

As to PCCSSSPPEPLNGESYESCCPTSR [E8P], the protein stability index amounted to 3.47. The same measure for PCCSSSPFEPLNGESYESCCPTSR [E8F]: 2.37; for PCCSSSPEEPLNGESYESCCATSR [P21A]: 3.68; for PCCSSSPEEPLNGESYESCCLTSR [P21L]: 3.51.

With PCCSSSPEEPLNGESYESCCWTSR [P21W], the protein stability index was found to be 2.62.

With PCCSSSPEEPLNGESYESCCTTSR [P21T], the protein stability index came to 3.76. In the case of PCCSSSPEEPLNGESYESCCHTSR [P21H] it was 3.71; in that of PCCSSSPEEPLNGESYESCCMTSR [P21M], 2.28.

As to PCCSSSPEEPLNGESYESCCVTSR [P21V], the protein stability index was 3.1. In the case of PCCSSSPEAPLNGESYESCCPTSR [E9A] it was 3.39; in that of PCCSSSPESPLNGESYESCCPTSR [E9S], 2.88; in that of PCCSSSPEIPLNGESYESCCPTSR [E9I], 3.33.

For the variant PCCSSSPEPPLNGESYESCCPTSR [E9P], the protein stability index was found to be 3.36. In the case of PCCSSSPEMPLNGESYESCCPTSR [E9M] it was 2.69; in that of PCCSSSPECPLNGESYESCCPTSR [E9C], 3.21; in that of PCCSSSPELPLNGESYESCCPTSR [E9L], 2.69. The same measure for PCCSSSPEDPLNGESYESCCPTSR [E9D]: 3.64. As for PCCSSSPEEPLNPESYESCCPTSR [G13P], the protein stability index is 4.01. PCCSSSPEEPLNSESYESCCPTSR [G13S]: the protein stability index worked out at 3.75.

Consider PCCSSSPEEPLNKESYESCCPTSR [G13K], for which the protein stability index amounted to 4.05. The same measure for PCCSSSPEEPLNHESYESCCPTSR [G13H]: 4.14; for PCCSSSPEEPLNCESYESCCPTSR [G13C]: 3.54.

For PCCSSSPEEPLNQESYESCCPTSR [G13Q], the protein stability index is 4.43. The same measure for PCCSSSPEEPLNVESYESCCPTSR [G13V]: 3.51; for PCCSSSPEEPLNWESYESCCPTSR [G13W]: 2.79. The same measure for PCCSSSPEEPLNEESYESCCPTSR [G13E]: 5.17; for PCCSSSPEEPLNFESYESCCPTSR [G13F]: 3.26. For the variant PCCSSSPEEPLNRESYESCCPTSR [G13R], the protein stability index worked out at 3.96.

On to PCCSSSPEEPLNGESYESCCPTSS [R24S], for which the protein stability index was 5.27. The same measure for PCCSSSPEEPLNGESYESCCPTSE [R24E]: 5.04. In the case of PCCSSSPEEPLNGESYESCCPTSG [R24G] it was 5.14; in that of PCCSSSPEEPLNGESYESCCPTSV [R24V], 4.34; in that of PCCSSSPEEPLNGESYESCCPTSM [R24M], 4.6. With PCCSSSPEEPLNGESYESCCPTSY [R24Y], the protein stability index was 4.25.

For PCCSSSPEEPLNGESYESCCPTST [R24T], the protein stability index stood at 4.97. For the variant PCCSSSPEEPLNGESYESCCPTSF [R24F], the protein stability index stood at 4.78. In the case of PCCSSSPEEPLNGESYESCCPTSI [R24I] it was 4.39; in that of PCCSSSPEEPLNGESYESCCPTSA [R24A], 4.81. The same measure for PCCSSSPEEPLNGSSYESCCPTSR [E14S]: 3.14.

Take PCCSSSPEEPLNGISYESCCPTSR [E14I]: the protein stability index came to 2.88. Consider PCCSSSPEEPLNGDSYESCCPTSR [E14D], for which the protein stability index stood at 3.77. In the case of PCCSSSPEEPLNGVSYESCCPTSR [E14V] it was 2.8. Consider PCCSSSPEEPLNGTSYESCCPTSR [E14T], for which the protein stability index amounted to 2.94. In the case of PCCSSSPEEPLNGLSYESCCPTSR [E14L] it was 3.01; in that of PCCSSSPEEPLNGYSYESCCPTSR [E14Y], 2.41; in that of PCCSSSPEEPLNGESYESCCPTER [S23E], 4.42. The same measure for PCCSSSPEEPLNGESYESCCPTKR [S23K]: 4.18.

As for PCCSSSPEEPLNGESYESCCPTGR [S23G], the protein stability index was 3.75. As for PCCSSSPEEPLNGESYESCCPTRR [S23R], the protein stability index was 2.95. The same measure for PCCSSSPEEPLNGESYESCCPTCR [S23C]: 4.2.

Turning to PCCSSSPEEPLNGESYESCCPTQR [S23Q], the protein stability index stood at 4.31. For PCCSSSPEEPLNGESYESCCPTLR [S23L], the protein stability index stood at 3.86. The same measure for PCCSSSPEEPLNGESYESCCPTFR [S23F]: 3.22; for PCCSSSPEEPLQGESYESCCPTSR [N12Q]: 3.32. Consider PCCSSSPEEPLEGESYESCCPTSR [N12E], for which the protein stability index was 4.42. Regarding PCCSSSPEEPLMGESYESCCPTSR [N12M], the protein stability index worked out at 3.98.

With PCCSSSPEEPLSGESYESCCPTSR [N12S], the protein stability index worked out at 4.38. PCCSSSPEEPLRGESYESCCPTSR [N12R]: the protein stability index was determined as 3.48. The same measure for PCCSSSPEEPLPGESYESCCPTSR [N12P]: 2.66. In the case of PCCSSSPEEPLIGESYESCCPTSR [N12I] it was 4.22; in that of PCCSSSPEEPLNGESYESDCPTSR [C19D], 4.5.

For the variant PCCSSSPEEPLNGESYESACPTSR [C19A], the protein stability index is 3.94. The same measure for PCCSSSPEEPLNGESYESPCPTSR [C19P]: 4.08; for PCCSSSPEEPLNGESYESWCPTSR [C19W]: 1.98. In the case of PCCSSSPEEPLNGESYESFCPTSR [C19F] it was 3.76. In the case of PCCSSSPEEPLNGESYESRCPTSR [C19R] it was 3.97.
